Source: article PMC9482650, “Quantitative fragmentomics allow affinity mapping of interactomes” (Nature Communications, 2022)

T1: GRIP1_2, Q9Y3R0
T1 sequence (Q9Y3R0 145-248, limits assumed, looked up): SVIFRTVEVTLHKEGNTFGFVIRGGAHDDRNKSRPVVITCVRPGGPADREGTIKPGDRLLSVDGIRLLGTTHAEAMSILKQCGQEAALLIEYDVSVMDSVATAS

T2: SNTB1, Q13884
T2 sequence (Q13884 107-205, limits assumed, looked up): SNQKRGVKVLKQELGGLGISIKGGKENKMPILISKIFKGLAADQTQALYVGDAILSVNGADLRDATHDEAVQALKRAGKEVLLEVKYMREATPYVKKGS

T3: SNTG1, Q9NSN8
T3 sequence (Q9NSN8 52-150, limits assumed, looked up): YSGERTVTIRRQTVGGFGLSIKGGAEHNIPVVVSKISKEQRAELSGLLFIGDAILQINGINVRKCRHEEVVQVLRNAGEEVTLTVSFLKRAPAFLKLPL

T4: APBA3_1, O96018
T4 sequence (O96018 389-490, limits assumed, looked up): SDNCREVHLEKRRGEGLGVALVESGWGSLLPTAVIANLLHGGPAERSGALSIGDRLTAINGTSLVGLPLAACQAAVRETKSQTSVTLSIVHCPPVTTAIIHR

T5: TJP3_3, O95049
T5 sequence (O95049 375-456, limits assumed, looked up): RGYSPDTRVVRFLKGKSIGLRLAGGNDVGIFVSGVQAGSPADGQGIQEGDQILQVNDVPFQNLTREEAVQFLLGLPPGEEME

T6: GRIP1_5, Q9Y3R0
T6 sequence (Q9Y3R0 568-668, limits assumed, looked up): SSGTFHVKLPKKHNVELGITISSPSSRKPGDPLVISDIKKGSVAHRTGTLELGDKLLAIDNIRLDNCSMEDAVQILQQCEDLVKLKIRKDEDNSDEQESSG

T7: APBA1_1, Q02410
T7 sequence (Q02410 651-752, limits assumed, looked up): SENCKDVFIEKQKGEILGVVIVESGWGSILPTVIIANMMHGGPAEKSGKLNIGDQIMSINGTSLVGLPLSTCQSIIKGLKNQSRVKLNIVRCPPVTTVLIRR

T8: MPDZ_5, O75970
T8 sequence (O75970 695-796, limits assumed, looked up): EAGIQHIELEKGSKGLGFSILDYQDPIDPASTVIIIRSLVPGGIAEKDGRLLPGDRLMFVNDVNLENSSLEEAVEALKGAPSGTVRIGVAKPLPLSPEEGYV

T9: NHERF3_1, Q5T2W1
T9 sequence (Q5T2W1 4-100, limits assumed, looked up): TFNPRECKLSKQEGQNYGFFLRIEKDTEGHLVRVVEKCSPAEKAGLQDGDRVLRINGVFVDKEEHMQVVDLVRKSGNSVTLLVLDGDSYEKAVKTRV

T10: SNTG2, Q9NY99
T10 sequence (Q9NY99 68-166, limits assumed, looked up): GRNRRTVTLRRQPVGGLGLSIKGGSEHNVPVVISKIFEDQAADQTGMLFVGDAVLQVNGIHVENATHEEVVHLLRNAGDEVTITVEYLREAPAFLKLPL

T11: APBA2_1, Q99767
T11 sequence (Q99767 563-664, limits assumed, looked up): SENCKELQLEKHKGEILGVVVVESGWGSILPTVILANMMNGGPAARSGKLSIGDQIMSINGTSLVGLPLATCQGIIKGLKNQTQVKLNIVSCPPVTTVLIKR

T12: SHANK1, Q9Y566
T12 sequence (Q9Y566 658-767, limits assumed, looked up): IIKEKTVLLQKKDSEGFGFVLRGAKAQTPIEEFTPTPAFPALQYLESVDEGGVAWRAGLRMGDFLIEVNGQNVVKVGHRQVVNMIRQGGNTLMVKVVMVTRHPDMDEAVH


Target: T1, GRIP1_2, Q9Y3R0
Assay: holdup assay
Design: key: below the threshold = too weak to quantify, mostly under pKd 3.1 to 4
Details: plain residues with an end cap or a label only (N-terminal biotin on a linker: ado-ado)

Binder | pKd
TMQMSLKDLL [GLA, P06280] | 3.5
RALRASESGI [ADGRE5, P48960] | below the threshold

Target: T2, SNTB1, Q13884
Assay: holdup assay
Design: key: below the threshold = too weak to quantify, mostly under pKd 3.1 to 4
Details: plain residues with an end cap or a label only (N-terminal biotin on a linker: ado-ado)

Binder | pKd
TMQMSLKDLL [GLA, P06280] | below the threshold
RALRASESGI [ADGRE5, P48960] | below the threshold

Target: T3, SNTG1, Q9NSN8
Assay: holdup assay
Design: key: below the threshold = too weak to quantify, mostly under pKd 3.1 to 4
Details: plain residues with an end cap or a label only (N-terminal biotin on a linker: ado-ado)

Binder | pKd
TMQMSLKDLL [GLA, P06280] | 3.5
RALRASESGI [ADGRE5, P48960] | below the threshold

Target: PARD3_3, Q8TEW0
Sequence (Q8TEW0 582-685): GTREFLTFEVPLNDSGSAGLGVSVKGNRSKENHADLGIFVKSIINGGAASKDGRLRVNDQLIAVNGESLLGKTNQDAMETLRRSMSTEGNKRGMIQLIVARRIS
Assay: holdup assay
Design: key: below the threshold = too weak to quantify, mostly under pKd 3.1 to 4
Details: plain residues with an end cap or a label only (N-terminal biotin on a linker: ado-ado)

Binder | pKd
TMQMSLKDLL [GLA, P06280] | 3.54
RALRASESGI [ADGRE5, P48960] | below the threshold

Target: T4, APBA3_1, O96018
Assay: holdup assay
Design: key: below the threshold = too weak to quantify, mostly under pKd 3.1 to 4
Details: plain residues with an end cap or a label only (N-terminal biotin on a linker: ado-ado)

Binder | pKd
TMQMSLKDLL [GLA, P06280] | below the threshold
RALRASESGI [ADGRE5, P48960] | below the threshold

Target: T5, TJP3_3, O95049
Assay: holdup assay
Design: key: below the threshold = too weak to quantify, mostly under pKd 3.1 to 4
Details: plain residues with an end cap or a label only (N-terminal biotin on a linker: ado-ado)

Binder | pKd
TMQMSLKDLL [GLA, P06280] | below the threshold
RALRASESGI [ADGRE5, P48960] | below the threshold

Target: GOPC, Q9HD26
Assay: holdup assay
Design: key: below the threshold = too weak to quantify, mostly under pKd 3.1 to 4
Details: plain residues with an end cap or a label only (N-terminal biotin on a linker: ado-ado)

Binder | pKd
TMQMSLKDLL [GLA, P06280] | 3.49
RALRASESGI [ADGRE5, P48960] | below the threshold

Target: T6, GRIP1_5, Q9Y3R0
Assay: holdup assay
Design: key: below the threshold = too weak to quantify, mostly under pKd 3.1 to 4
Details: plain residues with an end cap or a label only (N-terminal biotin on a linker: ado-ado)

Binder | pKd
TMQMSLKDLL [GLA, P06280] | 3.51
RALRASESGI [ADGRE5, P48960] | below the threshold

Target: T7, APBA1_1, Q02410
Assay: holdup assay
Design: key: below the threshold = too weak to quantify, mostly under pKd 3.1 to 4
Details: plain residues with an end cap or a label only (N-terminal biotin on a linker: ado-ado)

Binder | pKd
TMQMSLKDLL [GLA, P06280] | below the threshold
RALRASESGI [ADGRE5, P48960] | below the threshold

Target: T8, MPDZ_5, O75970
Assay: holdup assay
Design: key: below the threshold = too weak to quantify, mostly under pKd 3.1 to 4
Details: plain residues with an end cap or a label only (N-terminal biotin on a linker: ado-ado)

Binder | pKd
TMQMSLKDLL [GLA, P06280] | below the threshold
RALRASESGI [ADGRE5, P48960] | below the threshold

Target: Inadl_8, Q8NI35
Sequence (Q8NI35 1425-1530): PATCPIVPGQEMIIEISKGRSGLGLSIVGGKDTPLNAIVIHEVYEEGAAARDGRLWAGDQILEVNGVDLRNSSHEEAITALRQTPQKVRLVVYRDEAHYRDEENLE
Assay: holdup assay
Design: key: below the threshold = too weak to quantify, mostly under pKd 3.1 to 4
Details: plain residues with an end cap or a label only (N-terminal biotin on a linker: ado-ado)

Binder | pKd
TMQMSLKDLL [GLA, P06280] | below the threshold
RALRASESGI [ADGRE5, P48960] | below the threshold

Target: DLG2_3, Q15700
Assay: holdup assay
Design: key: below the threshold = too weak to quantify, mostly under pKd 3.1 to 4
Details: plain residues with an end cap or a label only (N-terminal biotin on a linker: ado-ado)

Binder | pKd
TMQMSLKDLL [GLA, P06280] | 3.52
RALRASESGI [ADGRE5, P48960] | below the threshold

Target: GRID2IP_2, A4D2P6
Sequence (A4D2P6 272-370): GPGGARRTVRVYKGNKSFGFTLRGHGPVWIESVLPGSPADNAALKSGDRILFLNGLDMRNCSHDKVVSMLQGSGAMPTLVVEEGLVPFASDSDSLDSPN
Assay: holdup assay
Design: key: below the threshold = too weak to quantify, mostly under pKd 3.1 to 4
Details: plain residues with an end cap or a label only (N-terminal biotin on a linker: ado-ado)

Binder | pKd
TMQMSLKDLL [GLA, P06280] | 3.69
RALRASESGI [ADGRE5, P48960] | below the threshold

Target: MAGI1_1, Q96QZ7
Sequence (Q96QZ7 1-106): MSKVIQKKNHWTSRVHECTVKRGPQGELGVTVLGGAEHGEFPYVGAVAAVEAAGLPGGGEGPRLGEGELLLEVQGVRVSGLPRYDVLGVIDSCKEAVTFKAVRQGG
Assay: holdup assay
Design: key: below the threshold = too weak to quantify, mostly under pKd 3.1 to 4
Details: plain residues with an end cap or a label only (N-terminal biotin on a linker: ado-ado)

Binder | pKd
TMQMSLKDLL [GLA, P06280] | below the threshold
RALRASESGI [ADGRE5, P48960] | below the threshold

Target: GORASP1, Q9BQQ3
Sequence (Q9BQQ3 1-208): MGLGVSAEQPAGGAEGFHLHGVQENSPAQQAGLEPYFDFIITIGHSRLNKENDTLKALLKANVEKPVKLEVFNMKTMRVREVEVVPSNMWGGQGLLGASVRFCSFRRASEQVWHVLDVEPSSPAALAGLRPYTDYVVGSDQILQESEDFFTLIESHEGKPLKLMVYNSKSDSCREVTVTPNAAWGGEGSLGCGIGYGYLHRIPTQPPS
Assay: holdup assay
Design: key: below the threshold = too weak to quantify, mostly under pKd 3.1 to 4
Details: plain residues with an end cap or a label only (N-terminal biotin on a linker: ado-ado)

Binder | pKd
TMQMSLKDLL [GLA, P06280] | 3.61
RALRASESGI [ADGRE5, P48960] | below the threshold

Target: T9, NHERF3_1, Q5T2W1
Assay: holdup assay
Design: key: below the threshold = too weak to quantify, mostly under pKd 3.1 to 4
Details: plain residues with an end cap or a label only (N-terminal biotin on a linker: ado-ado)

Binder | pKd
TMQMSLKDLL [GLA, P06280] | 4.34
RALRASESGI [ADGRE5, P48960] | below the threshold

Target: GRIP2_7, Q9C0E4
Sequence (Q9C0E4 934-1023): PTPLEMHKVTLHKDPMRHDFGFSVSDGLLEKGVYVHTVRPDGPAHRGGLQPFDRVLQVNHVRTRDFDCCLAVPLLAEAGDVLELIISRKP
Assay: holdup assay
Design: key: below the threshold = too weak to quantify, mostly under pKd 3.1 to 4
Details: plain residues with an end cap or a label only (N-terminal biotin on a linker: ado-ado)

Binder | pKd
TMQMSLKDLL [GLA, P06280] | below the threshold
RALRASESGI [ADGRE5, P48960] | below the threshold

Target: T10, SNTG2, Q9NY99
Assay: holdup assay
Design: key: below the threshold = too weak to quantify, mostly under pKd 3.1 to 4
Details: plain residues with an end cap or a label only (N-terminal biotin on a linker: ado-ado)

Binder | pKd
TMQMSLKDLL [GLA, P06280] | below the threshold
RALRASESGI [ADGRE5, P48960] | below the threshold

Target: GRIP2_6, Q9C0E4
Sequence (Q9C0E4 648-740): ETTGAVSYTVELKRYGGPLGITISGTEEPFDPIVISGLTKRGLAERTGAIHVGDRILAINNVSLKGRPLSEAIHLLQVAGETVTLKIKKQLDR
Assay: holdup assay
Design: key: below the threshold = too weak to quantify, mostly under pKd 3.1 to 4
Details: plain residues with an end cap or a label only (N-terminal biotin on a linker: ado-ado)

Binder | pKd
TMQMSLKDLL [GLA, P06280] | below the threshold
RALRASESGI [ADGRE5, P48960] | below the threshold

Target: AHNAK1, Q09666
Sequence (Q09666 4-100): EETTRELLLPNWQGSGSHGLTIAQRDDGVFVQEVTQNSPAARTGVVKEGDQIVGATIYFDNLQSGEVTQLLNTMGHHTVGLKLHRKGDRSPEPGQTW
Assay: holdup assay
Design: key: below the threshold = too weak to quantify, mostly under pKd 3.1 to 4
Details: plain residues with an end cap or a label only (N-terminal biotin on a linker: ado-ado)

Binder | pKd
TMQMSLKDLL [GLA, P06280] | below the threshold
RALRASESGI [ADGRE5, P48960] | below the threshold

Target: T11, APBA2_1, Q99767
Assay: holdup assay
Design: key: below the threshold = too weak to quantify, mostly under pKd 3.1 to 4
Details: plain residues with an end cap or a label only (N-terminal biotin on a linker: ado-ado)

Binder | pKd
TMQMSLKDLL [GLA, P06280] | below the threshold
RALRASESGI [ADGRE5, P48960] | below the threshold

Target: T12, SHANK1, Q9Y566
Assay: holdup assay
Design: key: below the threshold = too weak to quantify, mostly under pKd 3.1 to 4
Details: plain residues with an end cap or a label only (N-terminal biotin on a linker: ado-ado)

Binder | pKd
TMQMSLKDLL [GLA, P06280] | 3.59
RALRASESGI [ADGRE5, P48960] | below the threshold

Target: DLG1_3, Q12959
Sequence (Q12959 457-571): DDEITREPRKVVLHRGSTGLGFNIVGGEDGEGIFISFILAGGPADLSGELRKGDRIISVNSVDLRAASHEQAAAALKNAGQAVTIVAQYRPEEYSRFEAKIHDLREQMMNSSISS
Assay: holdup assay
Design: key: below the threshold = too weak to quantify, mostly under pKd 3.1 to 4
Details: plain residues with an end cap or a label only (N-terminal biotin on a linker: ado-ado)

Binder | pKd
TMQMSLKDLL [GLA, P06280] | below the threshold
RALRASESGI [ADGRE5, P48960] | below the threshold

Target: Inadl_9, Q8NI35
Sequence (Q8NI35 1530-1615): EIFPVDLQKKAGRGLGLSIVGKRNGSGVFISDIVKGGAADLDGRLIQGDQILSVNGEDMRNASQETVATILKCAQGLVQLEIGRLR
Assay: holdup assay
Design: key: below the threshold = too weak to quantify, mostly under pKd 3.1 to 4
Details: plain residues with an end cap or a label only (N-terminal biotin on a linker: ado-ado)

Binder | pKd
TMQMSLKDLL [GLA, P06280] | below the threshold
RALRASESGI [ADGRE5, P48960] | below the threshold
